Laboratory results: PMC9788556, “Nanobodies against Pfs230 block Plasmodium falciparum transmission” (Biochemical Journal, 2022)

B2: Pfs230 D1D2 (aa 587–889) (domain or fragment, Plasmodium falciparum, UniProt P68874 587-889, looked up)
chain: TNKEYVCDFTDQLKPTESGPKVKKCEVKVNEPLIKVKIICPLKGSVEKLYDNIEYVPKKSPYVVLTKEETKLKEKLLSKLIYGLLISPTVNEKENNFKEGVIEFTLPPVVHKATVFYFICDNSKTEDDNKKGNRGIVEVYVEPYGNKINGCAFLDEDEEEEKYGNQIEEDEHNEKIKMKTFFTQNIYKKNNIYPCYMKLYSGDIGGILFPKNIKSTTCFEEMIPYNKEIKWNKENKSLGNLVNNSVVYNKEMNAKYFNVQYVHIPTSYKDTLNLFCSIILKEEESNLISTSYLVYVSINEELN
notes: used untagged; also called first two 6-cys domains of Pfs230; source: Sf21 insect cells (baculovirus), secreted, purified (Ni-NTA, TEV cleavage, SEC); not shown: His8, N-terminal, cleaved
B7: Pfs230 Pro-D1D2 (aa 532–889) (domain or fragment, Plasmodium falciparum, UniProt P68874 532-889, looked up)
chain: DGENVIKIIRSVLQSGALPSVGVDELDKIDLSYETTESGDTAVSEDSYDKYASNNTNKEYVCDFTDQLKPTESGPKVKKCEVKVNEPLIKVKIICPLKGSVEKLYDNIEYVPKKSPYVVLTKEETKLKEKLLSKLIYGLLISPTVNEKENNFKEGVIEFTLPPVVHKATVFYFICDNSKTEDDNKKGNRGIVEVYVEPYGNKINGCAFLDEDEEEEKYGNQIEEDEHNEKIKMKTFFTQNIYKKNNIYPCYMKLYSGDIGGILFPKNIKSTTCFEEMIPYNKEIKWNKENKSLGNLVNNSVVYNKEMNAKYFNVQYVHIPTSYKDTLNLFCSIILKEEESNLISTSYLVYVSINEELN
notes: Pfs230 of Plasmodium falciparum (PF3D7_0209000), amino acids 532-889: a part of the prodomain and 6-cys domains D1 and D2; used untagged; source: Sf21 insect cells (baculovirus), secreted, purified (Ni-NTA, TEV cleavage, SEC); not shown: His8, N-terminal, cleaved

Assays:
Conditions in all cases: both partners purified
Pfs230 D1D2 (aa 587–889) [1] = biological target: B2; test: far-Western, overlay or dot blot; western blot: 250 ng untagged Pfs230 D1D2 separated on a 4–12% Bis-Tris gel in non-reducing conditions, on PVDF, probed with 0.5 µg/ml nanobody overnight at 4°C
Pfs230 D1 (aa 587–731) = biological target: T1, Pfs230 D1 (aa 587–731) (Plasmodium falciparum 3D7, UniProt P68874); test: BLI; Octet RED96e; monomeric nanobodies (5 µg/ml) on Ni-NTA sensor tips; untagged Pfs230 D1D2 6 to 200 nM or untagged Pfs230 D1 0.8 to 100 nM; PBS pH 7.4, 0.1% BSA, 0.05% TWEEN-20, 25°C; global 1 : 1 fit
T1 construct: used untagged; also called first 6-cys domain of Pfs230; source: Sf21 insect cells (baculovirus), secreted, purified (Ni-NTA, TEV cleavage, SEC); not shown: His8, N-terminal, cleaved

F5-Fc = biological target: T2, F5-Fc (alpaca); test: BLI; Octet RED96e; nanobody-Fc or LMIV230-01 (5 µg/ml) on anti-hIgG Fc capture sensor tips; untagged Pfs230 D1D2 or Pfs230 Pro-D1D2 3 to 100 nM or 94–3000 nM; PBS pH 7.4, 0.1% BSA, 0.05% TWEEN-20, 25°C; global 1 : 1 fit
T2 construct: as the VHH of m13 (nanobody F5); also called F5 nanobody-Fc fusion; source: HEK293, transient transfection, purified from supernatant (HiTrap PrismA, SEC)

F10-Fc = biological target: T3, F10-Fc (alpaca); test: as above
T3 construct: as the VHH of m14 (nanobody F10); also called F10 nanobody-Fc fusion; source: HEK293, transient transfection, purified from supernatant (HiTrap PrismA, SEC)

Pfs230 D1D2 (aa 587–889) [2] = biological target: B2; test: BLI; Octet RED96e; monomeric nanobodies (5 µg/ml) on Ni-NTA sensor tips; untagged Pfs230 D1D2 6 to 200 nM or untagged Pfs230 D1 0.8 to 100 nM; PBS pH 7.4, 0.1% BSA, 0.05% TWEEN-20, 25°C; global 1 : 1 fit
[3] = biological target: B7; test: SEC; size shift assay: Pfs230 Pro-D1D2 or Pfs230 D1D2 incubated with nanobodies or LMIV230-01 at different molar ratios for 1 h on ice; SD200 3.2/300 column, 20 mM HEPES pH 7.5, 150 mM NaCl
Pfs230 D1D2 (aa 587–889) [4] = biological target: B2; test: far-Western, overlay or dot blot; western blot: 250 ng untagged Pfs230 D1D2 separated on a 4–12% Bis-Tris gel in reducing conditions, on PVDF, probed with 0.5 µg/ml nanobody overnight at 4°C

B1: nanobody G2 (VHH)
VHH: QVQLQESGGGLVQAGGSLRLSCAASGRTFSNYFMGWFRQAPGKEREFVAAVSWSGGSTYYADSVKGRLTISRDNAKNTVYLQMNSLKPEDTAVYYCAAGERYFPMEPRRGYDYWGQGTQVTVSS
notes: From a phage display library (pMES4) of an alpaca immunized with Pfs230 D1D2; source: E. coli WK6, periplasmic extract, purified (HisTrap)
Q: Which results are given for B1?
A: binding result (Pfs230 D1D2 (aa 587–889) [1]): binds; binding result (Pfs230 D1 (aa 587–731)): binds

Q: How did the Kd (F5-Fc) turn out when B2 was run?
A: 570 pM

Q: What about the Kd (F10-Fc) of the same binder?
A: 130 pM

B3: nanobody A10 (VHH)
VHH: QVQLQESGGGLVQAGSSLRLSCAASGGTFSNYAMGWFRQAPGKEREFVAAIGWSGGTYYTDSVEGRFTISRDNAKNTVYLQMNSLKPEDTAVYYCAAKRSGSSWSERGYDYWGQGTQVTVSS
notes: as for B1
Q: What does the source list for B3?
A: binding result (Pfs230 D1D2 (aa 587–889) [1]): binds; binding result (Pfs230 D1 (aa 587–731)): binds

B4: nanobody D11 (VHH)
VHH: QVQLQESGGGLVQAGSSLRLSCAASGRTFSSYAMGWFRQAPGKEREFVAAIGWSGGTYYTDSVEGRFTISRDNAENTVYLQMNSLKPEDTAVYYCAAKASGSSWSERGYDYWGQGTQVTVSS
notes: as for B1
Q: Does B4 bind (Pfs230 D1D2 (aa 587–889) [2])?
A: binds

Q: Does B4 bind (Pfs230 D1 (aa 587–731))?
A: binds

B5: nanobody F5 (VHH)
VHH: QVQLQESGGGLVQPGGSLRLSCAASGFTLDRYAIGWFRQAPGKEREGVSCISSSDGSTYYADSVKGRFTISRDNAKNTVYLQMNSLKPEDTAVYYCARDHGPCTVLADILYDYGMDYWGKGTQVTVSS
notes: From a phage display library (pMES4) of an alpaca immunized with Pfs230 D1D2; also called anti-Pfs230 F5; source: E. coli WK6, periplasmic extract, purified (HisTrap)
Q: B5 was tested. Which “stoichiometry N” value [3] did it give?
A: 1

B6: nanobody G5 (VHH)
VHH: QVQLQESGGGLVQAGGSLRLSCAASGRTFNDYAMYWFRQAPGKEREFVADITWSGSSTYYADSVKGRFTISRDNAKNTVFLQMNSLKPEDTALYYCAADSRYYGIGIGTPRYWGQGTQVTVSS
notes: as for B1
Q: Does B6 bind (Pfs230 D1D2 (aa 587–889) [1])?
A: binds

Q: Does B6 bind (Pfs230 D1 (aa 587–731))?
A: binds

Q: For B7, which Kd (F5-Fc) is on record?
A: 118000 pM

B8: nanobody A11 (VHH)
VHH: QVQLQESGGGLVQPGESLRLSCAASGRTSSSYAMGWFRQAPGKEREFVASISWSGGSTYYADSVKGRFTLSRDNAKNTVYLQMNSLKPEDTAVYYCAADGIFYSDYPLSVDDFHSWGQGTQVTVSS
notes: as for B1
Q: What does the source list for B8?
A: binding result (Pfs230 D1D2 (aa 587–889) [4]): binds; binding result (Pfs230 D1 (aa 587–731)): binds

B9: nanobody D6 (VHH)
VHH: QVQLQESGGGLVQAGDSLRLSCAASGRTFSSYFMGWFRQAPGKEREFVAAISWSGGSTYYADSVKGRFTISRDNVKNTVYLQMNSLEPEDAAVYYCAGGGSYYPMSPRNGMDYWGKGTQVTVSS
notes: as for B1
Q: Does B9 bind (Pfs230 D1D2 (aa 587–889) [4])?
A: binds

Q: Does B9 bind (Pfs230 D1 (aa 587–731))?
A: binds

B10: nanobody F10 (VHH)
VHH: QVQLQESGGGLVQAGGSLRLSCAASGRTFSDYFMGWFRQAPGKEREFVAAVSWSGGSTYYADSVKGRFTISRDNAKNTVFLQMNSLKPEDTAVYYCAGGGSYYPMSPYDGMDYWGKGTQVTVSS
notes: From a phage display library (pMES4) of an alpaca immunized with Pfs230 D1D2; also called anti-Pfs230 F10; source: E. coli WK6, periplasmic extract, purified (HisTrap)
Q: Which “stoichiometry N” value [3] does the source give for B10 here?
A: 1

B11: nanobody D1 (VHH)
VHH: QVQLQESGGGLVQAGDSLRLSCTASGRTFSNHAMGWFRQAPGKEREIVAVIFGTGRNSWYVDSVKGRFTISRDNAKNTVALQMNRLKPEDTAVYYCASGRTWYSGSSMAEYDYWGQGTQVTVSS
notes: Not to be confused with the D1 domain of Pfs230; From a phage display library (pMES4) of an alpaca immunized with Pfs230 D1D2; also called D1 (nanobody); source: E. coli WK6, periplasmic extract, purified (HisTrap)
Q: Does B11 bind (Pfs230 D1 (aa 587–731))?
A: binds

B12: nanobody E1 (VHH)
VHH: QVQLQESGGGLVQPGGSLRLSCAASGRTFSSYFMGWFRQAPGKGRVFVASISWSGGSTYYADSVKGRFTISRDNAENTVYLQMNSLKPEDTAVYYCAAGTRATPLDWASGMDYWGKGTQVTVSS
notes: as for B1
Q: Which results are given for B12?
A: binding result (Pfs230 D1D2 (aa 587–889) [2]): binds; binding result (Pfs230 D1 (aa 587–731)): binds

B13: nanobody B4 (VHH)
VHH: QVQLQESGGGLVQPGGSLRLSCAASGFTLDYYGIGWFRQAPGKEREGVSCISSSDGSTYYADSVKGRFTISRDNAKNTVYLQMNSLKPEDTAVYYCAADLTGIGCTTAQAMGVIGDFGDFGSWGQGTQVTVSS
notes: as for B1
Q: Does B13 bind (Pfs230 D1D2 (aa 587–889) [2])?
A: binds

Q: Does B13 bind (Pfs230 D1 (aa 587–731))?
A: binds

B14: nanobody E11 (VHH)
VHH: QVQLQESGGGLVQPGGSLRLSCAASGFTSDYYGIGWFRQAPGKEREGVACISSSDGSTYYADSVKGRSTISRDNAKNTVYLQMNSLKPEDTAVYYCAADLSGIGCTTAQAMDVIGDFGDFGSWGQGTQVTVSS
notes: as for B1
Q: Does B14 bind (Pfs230 D1D2 (aa 587–889) [2])?
A: binds

Q: Does B14 bind (Pfs230 D1 (aa 587–731))?
A: binds
